Experiment [1] concerns the target T1, outer-membrane usher FimD (Escherichia coli, UniProt P30130 46-878).
T1 sequence: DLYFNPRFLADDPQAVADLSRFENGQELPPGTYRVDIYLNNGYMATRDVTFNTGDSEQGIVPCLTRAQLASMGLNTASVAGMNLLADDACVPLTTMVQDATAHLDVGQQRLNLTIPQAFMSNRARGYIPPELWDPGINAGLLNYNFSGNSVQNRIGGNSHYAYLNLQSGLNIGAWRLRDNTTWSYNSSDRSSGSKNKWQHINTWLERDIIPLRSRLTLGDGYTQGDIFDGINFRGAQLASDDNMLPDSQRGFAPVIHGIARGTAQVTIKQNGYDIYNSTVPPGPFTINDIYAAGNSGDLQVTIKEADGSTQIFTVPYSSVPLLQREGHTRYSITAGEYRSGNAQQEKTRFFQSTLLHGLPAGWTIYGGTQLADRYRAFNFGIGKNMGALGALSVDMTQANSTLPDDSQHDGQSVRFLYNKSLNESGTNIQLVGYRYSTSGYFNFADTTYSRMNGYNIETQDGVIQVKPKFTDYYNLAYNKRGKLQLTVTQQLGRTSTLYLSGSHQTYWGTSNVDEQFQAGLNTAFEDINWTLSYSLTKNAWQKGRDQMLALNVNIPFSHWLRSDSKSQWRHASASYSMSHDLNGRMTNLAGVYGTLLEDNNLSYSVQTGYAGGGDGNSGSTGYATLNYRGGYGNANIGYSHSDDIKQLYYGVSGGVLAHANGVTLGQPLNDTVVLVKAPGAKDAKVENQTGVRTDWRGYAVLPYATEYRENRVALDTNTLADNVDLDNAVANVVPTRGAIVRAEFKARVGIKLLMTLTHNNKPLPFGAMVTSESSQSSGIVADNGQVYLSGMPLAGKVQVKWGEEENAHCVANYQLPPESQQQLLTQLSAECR
In words: cryo-EM structure. Particulars: both partners purified.

The target in a further experiment is T2, adhesin FimH (wild type) (Escherichia coli, UniProt P08191 22-300).
T2 construct: also called FimHWT; tip adhesin
In words: cryo-EM structure; FimD–FimCH complex, second class of particles in the same purified sample and dataset; ~3.5 Å; map fits PDB 3RFZ. Particulars: both partners purified.

T2 sequence (P08191 22-300): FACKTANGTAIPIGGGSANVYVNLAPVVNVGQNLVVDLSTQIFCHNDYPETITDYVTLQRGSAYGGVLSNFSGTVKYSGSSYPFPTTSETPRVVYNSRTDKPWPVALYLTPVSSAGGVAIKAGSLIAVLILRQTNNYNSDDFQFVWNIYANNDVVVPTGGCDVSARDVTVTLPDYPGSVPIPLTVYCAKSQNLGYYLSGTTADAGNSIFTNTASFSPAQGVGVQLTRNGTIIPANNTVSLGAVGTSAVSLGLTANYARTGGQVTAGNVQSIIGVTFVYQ

B1: periplasmic chaperone FimC with a C-terminal polyhistidine tag (natural protein)
chain: GVALGATRVIYPAGQKQEQLAVTNNDENSTYLIQSWVENADGVKDGRFIVTPPLFAMKGKKENTLRILDATNNQLPQDRESLFWMNVKAIPSMDKSKLTENTLQLAIISRIKLYYRPAKLALPPDQAAEKLRFRRSANSLTLINPTPYYLTVTELNAGTRVLENALVPPMGESTVKLPSDAGSNITYRTINDYGALTPKMTGVME
notes: also called FimChis; FimCHis; not shown: polyhistidine, C-terminal, kept
Regarding B1, the binding result (in experiment [1]; with adhesin FimH (wild type)) was “binds” in each case.

(Values after PMC11459180, “Structural basis for adhesin secretion by the outer-membrane usher in type 1 pili” (Proceedings of the National Academy of Sciences of the …, 2024).)
